This data set deals with MITF (UniProt Q08874 287-403). The data set can be described thus: fluorescence anisotropy; FA: 0.5 nM dsDNA, 10 mM Tris/HCl pH 7.5, 300 mM NaCl, 0.01% Triton X-100, 0.1 mg/mL BSA, 25 °C, 5 min; fit one MITF dimer per dsDNA. Crystals: 0.9 M sodium malonate pH 5.5. Particulars: protein: recombinant; chain copies: 2; label: 3' fluorescein on strand 1; blunt. In general terms: In fluorescence polarisation assays a small probe gives low polarisation when free and higher when bound to something large.
Chain of MITF (Q08874 287-403): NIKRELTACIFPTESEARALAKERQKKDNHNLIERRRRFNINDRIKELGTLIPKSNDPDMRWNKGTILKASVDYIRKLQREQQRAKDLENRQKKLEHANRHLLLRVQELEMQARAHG

B1: CLEAR-box (FA) (dsDNA)
DNA 1: GAGATCACGTGATGAC
DNA 2: GTCATCACGTGATCTC
Regarding B1, the dissociation constant (Kd) (commonly a measure of binding affinity in units of concentration) stood at 0.9 ± 0.3 nM.

B2: M-box (dsDNA)
DNA 1: GAGATCATGTGTTGAC
DNA 2: GTCAACACATGATCTC
Take B2: the Kd worked out at 2.6 ± 0.4 nM.

B3: E-box (dsDNA)
DNA 1: GAGACCACGTGTTGAC
DNA 2: GTCAACACGTGGTCTC
Take B3: the Kd is 1.5 ± 0.3 nM.

For the origin of these results see PMC6355916, “MITF has a central role in regulating starvation-induced autophagy in melanoma”.
